From the nanobody polyreactivity screen of Harvey et al. (2022)

assay: yeast display, Sf9 membrane polyspecificity reagent, FACS + sequencing; frameworks hold sequencing errors
Summary of the method: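 Synthetic nanobody libraries on Saccharomyces cerevisiae BJ5465 were galactose-induced for 36–48 hours, stained 1 hour at 4 °C with 10% biotinylated, detergent-solubilized Sf9 membrane reagent and enriched on streptavidin microbeads. FACS then separated cells into low and high (top ~1%) gates by anti-HA (expression) and streptavidin (reagent binding) fluorescence. Genes were colony-PCR amplified, MiSeq 2 × 250 sequenced and CDR-length filtered. A clone's polyreactivity label is that of its gate of origin.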

| Sequence | polyreactivity (PSR sort gate) |
| --- | --- |
| QVQLVESGGGLVQAGGSLRLSCADSGRIICWYAMGWYRQAPGKERELVAAISTGSRTYYADSVKGRFTISRDNAKTTVYLQMNSLKPEDTAVYYCAASLYSGYVSWGQGTQVTVSS | low polyreactivity |
| QVQLVESGGGLVQAGGSLRLSCADSGRILPFYAMGWYRQAPGKERELVADISLSGGDTYYADSVKGRFTISRDNAKNTVYLQMNSLKPEDTAVYYCAKDRYQWLWSPEYDYWGQGTQVTVSS | low polyreactivity |
| QVQLVESGGGLVQAGGSLRLSCADSGRTFGRNVMGWYRQAPGKERELVASITRSGGSTYYADSVKGRFTISRDTAKNTVYLEMNSLKPEDTAVYYCAKCYYLWCSYWGPSQYDWGQGSQVTVSS | high polyreactivity |
| QVQLVESGGGLVQAGGSLRLSCADSGRTFRFNTRGWYRQAPGKEWVLVASISSSGGRTYYADSVKGRFTISRDNAKNTLYLQMHSLKPEDTAVYYCAAAAGWGARTSTYCGYDYWGQGTQVTVST | high polyreactivity |
| QVQLVESGGGLVQAGGSLRLSCADSGRTFSTYAMGWYRQAPGKERELVAAISSGGGRTYYADSVKGRFTISRDNAKNTVYLQINSLKPEDTAVYYCAADRYFRSRRSYEYWGQGTQVTVSS | low polyreactivity |
| QVQLVESGGGLVQAGGSLRLSCADSGRTNPHYAMGWYRQAPGKESEFVAAISSRGGSTYDADSVKGRFTISRDNAKNTVYVQMNSLKPEDTAVYYCAAQYDGLPRVSYGLGEFGYWGQGSQVTVSS | low polyreactivity |
| QVQLVESGGGLVQAGGSLRLSCADSGSIFAYAMGCSRQAPRKESELVAGISSSGGRTYYADSVKGRFSISRDNAKNTVYLQMNSLKPEDTAVYYCAAKRWGLYKGYYWGQGTQVTVSS | high polyreactivity |
| QVQLVESGGGLVQAGGSLRLSCADSGSIFDFNTMGWYRQAPGKERELVAAISQRTGRTYYADSVKGRFTISRDNANNTVYLQMNSLKPEDTADYYCAVVWYDKGRQTRYNSWGQGTQVTVSS | high polyreactivity |
| QVQLVESGGGLVQAGGSLRLSCADSGSIFFFYAMGWYRQAPGKERELVAAISKSPSSTYYADSVKGRFTISRDNAKNTVYLQMNSLKPEDTAVYYCNTGYSGIQYYYWGQGAQVTVSS | low polyreactivity |
| QVQLVESGGGLVQAGGSLRLSCADSGSILIHYTMGWYRQEPGKERELVAAISSTGGSTYYADSVKGRFTISRDNAKNTVYLQMNSLKPEDTAVYYCATGPHQPPYSYLDYDYWGQGTQVTVSS | low polyreactivity |
| QVQLVESGGGLVQAGGSLRLSCADSGSISDYYAMGWYRQAPGKERELVAAISWDGGSTYYADSVKGRFTISRDNAKNTVYLQMNSLKPEDTAVYYCAAVAWEGSGSEMYSWGQGTQVTVSS | low polyreactivity |
| QVQLVESGGGLVQAGGSLRLSCADSGSTFRPYAMGWNRQAPGKERELVAAISSGDSTYYADSVKGRFTISRDNAKNTVYLQMNSLKPEDTAVYYCAKRKYWHRGGGYWGQGTQVTVSS | high polyreactivity |
| QVQLVESGGGLVQAGGSLRLSCADSGSTFWFYERGWYSQAPGKVRELVAVISNSGSTYYADSVKGLFTISRDNAKNTVYLQMNSLKPEDTAVYYCNKDGGGDSYWYDYWGQGTQVTVSS | low polyreactivity |
| QVQLVESGGGLVQAGGSLRLSCADSGSTFWLYAMGWYRQAPGKERELVASISSRGRSTYYADSVKGRFTISRDNAKNTVYLQMNSLKPEDTAVYYCAAKDIRYDDDYWGQGTQVTVSS | low polyreactivity |
| QVQLVESGGGLVQAGGSLRLSCADSGSTFYRYGMASSRHAPGKERELVAAISWRGGITYYADSVKGRFTISRENAMHTVYLQRNSLKPQDSAVYYCAADGPYTGDGALDYWGQGTQVTVSS | high polyreactivity |
| QVQLVESGGGLVQAGGSLRLSCADSGSTFYVYSMGWYRQAPGKERELVAAITGSTGSTYYADSVKGRFTISRDNAKNTVYLQMNSLKPVDTAVYYCAADFYGVPIIYDYWGQGTQVTLSS | low polyreactivity |
| QVQLVESGGGLVQAGGSLRLSCADSGSTIPKYAMGWSRQAPGKERELVAVITSGGSTYYADSVKGRFTISRDNAKNTVYLQMISLKPEDTAVYYCAARKYRRFDYWGQGTQVTVSS | high polyreactivity |
| QVQLVESGGGLVQAGGSLRLSCADSGTTFVKYAMGWYRQAPGKERELVAAISSRGGRTYYADSVKGRFTISRDNAKNTVYLQMNSLKPEDTEVYYCNKGTRLDGEYEYWGHGTQVTVSS | high polyreactivity |
| QVQLVESGGGLVQAGGSLRLSCADSGYIFDAYAMGWYRQAPGKERELVAAIDIGGSTYYADSVKGRFTISRDNAKNTVYLQMNSLKPEDTAVYYCAEWFYFDQWDYAREYWGQGTQVTVSS | low polyreactivity |
| QVQLVESGGGLVQAGGSLRLSCAGSGNIFSTYAMGWYRPAPGKVRELVASISENGGSTYYADSVKGRFTISRDNAKNTVYLQMNSLKPEDTAVYYCNADAYVYFDDGDYWGQGTQVTVSS | low polyreactivity |
| QVQLVESGGGLVQAGGSLRLSCAGSGRIFARNVMGWYGQAPGKVRELVAAISRSGGSTYYADSVKGRFTISRDNAKNTVYLQMNSLKPEDTAFYYCNAYYPIRSSPYGYYYWGQGTQVTVSS | high polyreactivity |

| Sequence | polyreactivity (PSR sort gate) |
| --- | --- |
| QVQLVESGGGLVQAGGSLRLSCAGSGRIFYVYAMGWYRQAPGKERELVAAISRGGSTNYADSVKGRFTISRDNAKNTVYLQMNSLKPEDTAVYYCAASSLPHYSFRHSYLYEYWGQGTQVTVSS | low polyreactivity |
| QVQLVESGGGLVQAGGSLRLSCAGSGSTFDSYAMGWYRQAPGKERELVAAITRSDASTYYADSVKGRFTISRDNAKNTVYLQMNSLKPEDTAVYYCAADTSLVYYGGDWEYYYWGQGTQVTVSS | low polyreactivity |
| QVQLVESGGGLVQAGGSLRLSCAGSGSTFRSNAMGWYRQAPGKERELVAAISQRGGSTYYADSVKGRFTISRDNAKNTVYLQMNSLKPEDTAVYYCAAQYFRRSGYWGQGTQVTVSS | high polyreactivity |
| QVQLVESGGGLVQAGGSLRLSCAGSGSTFVVYSIGWYRQAPGKERELVAAITRGGGSTYYAYSVKGRFTISRDNAKNTVYLLMNSLKPEDTAVYYCAAYQLPGLRTSFEYWGQGTQVTVSS | low polyreactivity |
| QVQLVESGGGLVQAGGSLRLSCAGSGSTVSANALGSYRQAPGKDRELVAAISRRGGSTNYADSVKGRFTISRDNAKNTVYLQMNSLKPEDTAVYYCAGLYVPRSPFSYDYWGQGTQVTVSS | high polyreactivity |
| QVQLVESGGGLVQAGGSLRLSCAGSGYILFAYAMGWSRQAPGKERELVATITTSGGITYYADSVKGRFTISRDNAKNTVYLQMNSLKPEDTEVYYWAAAEGGGLVTYDYWGQGSQVTVSS | low polyreactivity |
| QVQLVESGGGLVQAGGSLRLSCAGYGRIFEDNSMVSYRQPPGKERELVAAISSGDSTKYADSVKGRFTISRDNAKTTVYLQIKSLKQEDTAVYYCAAERNHGLVGSESVGRNVYWGHGTQVTVSS | low polyreactivity |
| QVQLVESGGGLVQAGGSLRLSCAHSGFTFTRNAMGWYRQSPGKETELVATISGSGGGTYYADSVKGRFTISRDNAKNTVYLQMNRLKPEDTAVYYCNARRLYSWQGTARYDFWGQGTQVTVSS | low polyreactivity |
| QVQLVESGGGLVQAGGSLRLSCAPSGATFRRNAMGWYRQAPGKERELVAAITWRGGSTSYADSVKGRFTISRDNAKNTVYLQMNSLKREDTAVYYCAAVKGHSQVLSYGYWGQGTQVTVSS | low polyreactivity |
| QVQLVESGGGLVQAGGSLRLSCAPSGFIFAKYTMGWSRHAPGKERELVAAISANGGNTYYADSVKGRFTITRDNAKNTVYLQMNSLNPEDTAVYYCAALYKYSSYFDYWGQGTLVTVSS | high polyreactivity |
| QVQLVESGGGLVQAGGSLRLSCAPSGFIFARNAMGWYRQAPGKERELVAVISTRGRTYYADSVKGRFTISRDNAKNTVYLQMKRLKPEDTAVYYCNADKVIGYDYWGQGTQVTVSS | high polyreactivity |
| QVQLVESGGGLVQAGGSLRLSCAPSGFIFSRYAMGWYRQAPGKERELVATITSSGGSTYYADSVKGRFTISRDNAKNTVYLQMNSLKPEDTAVYYCNAKISIRWHYGYYYWGQGTQVTVSS | high polyreactivity |
| QVQLVESGGGLVQAGGSLRLSCAPSGFTFGIYAMGWYRQAPGKERELLADINVSDGSTYYADSVKRRFTISRDNAKNTVYLQMNSLKPEDTAVYYSAAYVYDTIYTSYREYDYWGQGTQVTVST | low polyreactivity |
| QVQLVESGGGLVQAGGSLRLSCAPSGFTFRYNTMAWYRQAPGKERELVAAISSSGSSTYYADSVKGRFTISRDNAKNTVYLQMNSLKPVDTAVYYCNAVHRRTRYGYWGQGTQVTVSS | high polyreactivity |
| QVQLVESGGGLVQAGGSLRLSCAPSGGTFALYAMGWYRQAPGKERELVASISFNGGSTYYADSVKGRFTISRDNAKNTVYLQMNSLKPEDTAVYYCNTGYQWGVYESQTAVEDYWGQGTQVTVSS | low polyreactivity |
| QVQLVESGGGLVQAGGSLRLSCAPSGGTFIYYAMGWYRQAPGKERELVAAISSGGSTYYADSVKGRFTISRDNAKNTVYLQMNSLKPEDTAVYYCAKRRAVQIVDLEYWRQGTQVTVSS | low polyreactivity |
| QVQLVESGGGLVQAGGSLRLSCAPSGGTFVTYAMGWYIQAPGKERELVAAITTGGSTYYADSVKGRFTISRDNAKNTVYLQMNSLKPEDTAVYYCAAVYTGSGKRYYKGYYWGQGTQVTVSS | low polyreactivity |
| QVQLVESGGGLVQAGGSLRLSCAPSGIIAKHNAMGWYRQAPGKERELVAAITSGSITNYADSVKGRFTISRDNAKNTLYLQMNSLKPEDTAVYYCAKRVDAYGWWGRRSGVLSDYWGQGTQVTVSS | low polyreactivity |
| QVQLVESGGGLVQAGGSLRLSCAPSGIILGYYAMGWYRQAPGKERELVAAISSGGRTYYADSVKGRFTISRDNAKNTVYLQMNSLKPEDTAVYYCAADDTRGREEYDYWGQGTQVTVSS | high polyreactivity |
| QVQLVESGGGLVQAGGSLRLSCAPSGIISIFNVMGWYRQAPGKERELVASITGRGGSTFYADSVKGRFTISRDNAKNTVYLQMNSLKPEDTAVYYCATDTGYTYPVTGLYDYWGQGTQVTVSS | low polyreactivity |
